Measurements as given in patent publication US20230416343A1.
Like-named read-outs stand apart in the source and are kept apart here.

Columns and labels:
[1] = target: SARS-CoV-2 variant spike protein del 69-79 plus N439K on HEK293 cells (SARS-CoV-2) (UniProt P0DTC2)
[2] = target: SARS-CoV-2 variant spike protein del 69-79 plus N501Y on HEK293 cells (SARS-CoV-2) (UniProt P0DTC2)
[3] = target: SARS-CoV-2 Delta variant S protein expressed on HEK293 cells (SARS-CoV-2) (UniProt P0DTC2)
[4] = target: SARS-CoV-2 Delta Plus variant S protein expressed on HEK293 cells (SARS-CoV-2) (UniProt P0DTC2)
[5] = target: SARS-CoV-2 Delta variant S protein expressed on HEK293 cells (SARS-CoV-2) (UniProt P0DTC2); remark: listed apart in the source
[6] = target: SARS-CoV-2 variant spike protein del 69-79 plus N439K on HEK293 cells (SARS-CoV-2) (UniProt P0DTC2); remark: listed apart in the source
[7] = target: SARS-CoV-2 variant spike protein del 69-79 plus N501Y and D614G on HEK293 cells (SARS-CoV-2) (UniProt P0DTC2)

S1D7270LALA antibody (STI-2020)
EC50 (read off the curve) [1]: 0.07 µg/mL | EC50 (read off the curve) [2]: 0.09 µg/mL | EC50 [3]: 0.106 µg/mL | EC50 [4]: 0.187 µg/mL | EC50 [5]: 0.105 µg/mL | EC50 [6]: 70 µg/mL | EC50 [7]: 172 µg/mL
